For 2 substances, inhibition of DEFB104 mRNA upregulation by 100 ng/ml IL-17A in HBE cells after preincubation with 2 ug/ml anti-IL-17R antibody and inhibition of DEFB104 mRNA upregulation by 100 ng/ml IL-17F in HBE cells after preincubation with 2 ug/ml anti-IL-17R antibody results are on record in patent US20100322897A1.

This test concerns the target human IL-17 receptor (IL-17R) on primary human bronchial epithelial (HBE) cells (human) (UniProt Q96F46). The experiment in a line: cell-based or functional assay.

In turn, “IL-17A (R&D Systems) (from UniProt Q16552 20-155) (ligand)” gave an inhibition of DEFB104 mRNA upregulation by 100 ng/ml IL-17A in HBE cells after preincubation with 2 ug/ml anti-IL-17R antibody of 62.5%.

Consider “human IL-17F (R&D Systems) (from UniProt Q96PD4 31-163) (ligand)”, for which the inhibition of DEFB104 mRNA upregulation by 100 ng/ml IL-17F in HBE cells after preincubation with 2 ug/ml anti-IL-17R antibody is 77.6%.
